Measurements as given in article PMC12067460, “Probing the ferredoxin:hydrogenase electron transfer complex by infrared difference spectroscopy†” (Chemical Science, 2025).
Where no end group is shown, it is not given here.

Assays:
[1] = target: Y3pCNF-CpFd, ferredoxin CpFd from Clostridium pasteurianum with tyrosine Y3 replaced by 4-cyano-L-phenylalanine (holo) (Clostridium pasteurianum) (UniProt P00195); assay: MST; anaerobic; reducing conditions (dithionite); ferredoxin labelled with Alexa Fluor 647
[2] = target: clostridial 2[4Fe-4S] ferredoxin CpFd from Clostridium pasteurianum, wild type (holo) (Clostridium pasteurianum) (UniProt P00195); assay: as above
[3] = target: ferredoxin PetF from Chlamydomonas reinhardtii, wild type, Alexa Fluor 647-labeled (Chlamydomonas reinhardtii) (UniProt P07839); assay: MST; labeled PetF (200 nM) titrated with unlabeled CrHydA1 (0.003–10 µM) with 2 mM dithionite under anaerobic conditions; read-out: concentration-dependent fluorescence quenching of the Alexa Fluor 647 label; 50 mM TRIS pH 8, 50 mM NaCl, 1 mM MgCl2, 0.05 mg/mL BSA, 0.05% Tween20; Monolith NT.115, 22°C
[4] = target: T1, [FeFe]-hydrogenase CpI from Clostridium pasteurianum (Clostridium pasteurianum, UniProt P29166 1-574); assay: MST; anaerobic; reducing conditions (dithionite); ferredoxin labelled with Alexa Fluor 647; details: both partners purified
T1 construct: [FeFe]-hydrogenase CpI of Clostridium pasteurianum, with H-domain (H-cluster) and F-domain (three [4Fe-4S] clusters, one [2Fe-2S] cluster)
T1 sequence: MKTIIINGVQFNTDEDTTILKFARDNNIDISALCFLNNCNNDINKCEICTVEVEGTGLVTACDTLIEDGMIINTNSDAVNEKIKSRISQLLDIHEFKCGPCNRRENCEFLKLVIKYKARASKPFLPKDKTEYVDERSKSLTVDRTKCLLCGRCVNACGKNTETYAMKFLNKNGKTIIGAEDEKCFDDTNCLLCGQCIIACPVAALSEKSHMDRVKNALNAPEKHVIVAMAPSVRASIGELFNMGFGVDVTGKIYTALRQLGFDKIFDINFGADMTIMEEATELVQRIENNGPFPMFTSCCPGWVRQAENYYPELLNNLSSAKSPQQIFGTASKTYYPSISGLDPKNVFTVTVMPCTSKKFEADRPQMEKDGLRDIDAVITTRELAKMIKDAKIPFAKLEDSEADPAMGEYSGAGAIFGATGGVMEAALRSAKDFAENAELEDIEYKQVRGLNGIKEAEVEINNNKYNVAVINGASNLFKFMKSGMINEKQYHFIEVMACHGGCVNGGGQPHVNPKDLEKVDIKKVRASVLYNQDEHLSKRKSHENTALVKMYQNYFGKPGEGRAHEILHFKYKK

[FeFe]-hydrogenase CpI from Clostridium pasteurianum (from UniProt P29166 1-574) (enzyme)
Kd [1]: 11.3 µM

[FeFe]-hydrogenase CrHydA1 from Chlamydomonas reinhardtii (enzyme)
Kd [2]: 2.41 µM | Kd [3]: 1.24 µM

B1: clostridial 2[4Fe-4S] ferredoxin CpFd from Clostridium pasteurianum, wild type (holo) (natural protein)
chain: AYKIADSCVSCGACASECPVNAISQGDSIFVIDADTCIDCGNCANVCPVGAPVQE
modifications: cysteine pairing not given here; also: Alexa Fluor 647 dye label, site not given here, binds two [4Fe-4S] clusters (F and F')
notes: Ferredoxin CpFd of Clostridium pasteurianum, 2[4Fe-4S] type, wild type; Tested reduced (with dithionite) and oxidized (without dithionite); the redox state is told by the assay; also called wild-type CpFd; holo-CpFd; source: E. coli C321.ΔA.opt
Kd [4]: 12.4 ± 0.97 µM
